Data as given in patent publication US12692310B2, “ASIC1 channel antagonist antibody” (ShanghaiTech University, priority 2019, dated 2026).

Assays:
[1] = tested on: primary cortical neurons from the ASIC1a KO mice (ASIC1a−/−); experiment: ICC staining of primary cortical neurons from ASIC1a KO mice; assay type: cell-based, mouse
Experimental: Cell Culture. The CHO-K1 cell line (#CRL-9618; ATCC) was maintained in an F-12k media (#21127022; Gibco) containing 10% (vol/vol) FBS (#1600074; Gibco), whereas the FreeStyle 293F (#R79007; ThermoFisher Scientific) cell line was cultured in a Freestyle 293 expression media (#12338026; Thermo-Fisher Scientific). Spodoptera frugiperda 9 (Sf9) cells (#12659017; Thermo-Fisher Scientific) was cultured at 27° C. in an ESF921 media (#96-001-01; Expression Systems). Primary cortical neurons dissected from E18-d-old C57 BL/6 mice or ASIC1a^−/− mice were maintained in a Neurobasal media (#21103049; Gibco) supplemented with B27 (#17504044; Gibco) and Glutamx I (#35050061; Gibco). The CHO-K1/hASIC1a stable cell line overexpressing the full-length hASIC1a (1-528 amino acids) channel was generated as follows: The cDNA of the full-length hASIC1a with a C-terminal eYFP fusion or a C-terminal mCherry fusion was constructed, cloned into a pCDNA3.1-Neo expressing vector, and transfected into the CHO-K1 cells using Lipofectin 2000. The CHO-K1/hASIC1a stable cell line was selected by the antibiotic, geneticin (up to 1 mg/mL), and validated by the fused fluorescence proteins eYFP (λex=488 nm; λem=528 nm) or mCherry fluorescence (λex=587 nm; λem=610 nm) using flow cytometry. Over 80% positive cells survived when cultured in the presence of 200 µg/mL geneticin for 30 days. […]

[2] = molecular target: T1, hASIC1a-eYFP on CHO-K1 cells (Homo sapiens, UniProt P78348); experiment: Immunocytochemistry on CHO-K1/hASIC1a cells; assay type: cell-based; conditions: ICC, confocal
T1 construct: overexpress the full-length hASIC1a (1-528 amino acids) protein fused with eYFP; expressed in transfected cells; host or cells: CHO-K1, transient
T1 sequence (P78348 1-528): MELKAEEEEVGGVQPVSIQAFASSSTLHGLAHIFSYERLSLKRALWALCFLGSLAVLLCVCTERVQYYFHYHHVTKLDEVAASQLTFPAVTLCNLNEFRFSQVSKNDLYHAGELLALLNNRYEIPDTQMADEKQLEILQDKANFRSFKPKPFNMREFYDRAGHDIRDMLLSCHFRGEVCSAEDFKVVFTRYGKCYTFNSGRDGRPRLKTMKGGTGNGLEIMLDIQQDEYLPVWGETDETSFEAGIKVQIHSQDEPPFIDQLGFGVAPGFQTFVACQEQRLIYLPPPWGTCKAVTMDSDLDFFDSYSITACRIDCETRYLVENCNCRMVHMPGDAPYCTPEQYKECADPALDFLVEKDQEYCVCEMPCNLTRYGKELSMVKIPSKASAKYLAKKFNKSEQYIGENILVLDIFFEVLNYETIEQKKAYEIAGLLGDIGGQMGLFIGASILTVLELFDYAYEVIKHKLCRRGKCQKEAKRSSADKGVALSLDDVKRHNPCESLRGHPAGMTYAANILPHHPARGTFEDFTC
Experimental: Cell Membrane Colocalization Studies Using Immunocytochemistry (ICC). Cells (CHO-K1) were seeded onto the poly-D-lysine-coated glass bottom 24-well plates at a concentration of 2×10^5 cells per mL. After 12 h of cultivation, the CHO-K1 cells were transfected with ASIC plasmids by Lipofectin 3000 reagent. Twenty-four hours after transfection, the cells were fixed in 4% paraformaldehyde and incubated for 30 min in a blocking solution (5% goat serum in PBS). The resulting cells were incubated with […] ASC06-IgG1 at 4° C. overnight followed by three PBS washes for 5 min each and incubation with the Alexa555-conjugated goat anti-human secondary antibody (Life Technology). After three additional PBS washes for 5 min each, the nuclei of the cells were stained with DAPI (#10236276001; Roche). The ICC analysis was performed on a laser scanning confocal microscopy (ZEISS LSM710) with a 63×N.A. 1.4 objective at 25° C. Images were collected on a 1,024×1,024-pixel EM-CCD camera. Data acquisition and analyses were performed with the ZEN 2012 professional software.
To understand whether ASC01-ASC06 specifically bind to the ASIC1a protein expressed on cell surface, the binding of the antibodies to CHO-K1/hASIC1a cells was evaluated using immunocytochemistry. The CHO-K1/hASIC1a cells overexpress the full-length hASIC1a (1-528 amino acids) protein fused with eYFP. […] It is likely that ASC01-ASC05 recognize specific ASIC1a confirmations or subpopulations.
The ASC06 antibody was converted into a full length IgG1 form (ASC06-IgG1) for further study. […] The binding of ASC06-IgG1 to CHO-K1/hASIC1a cells was evaluated using immunocytochemistry, in comparison with the ASC06 (scFv format) antibody.

B1: ASC06-IgG1: ASC06 antibody converted into a full length IgG1 form (antibody, V domains shown)
VH: QVQLQQSGGGLVQPGGSLRLSCAASGFTFSSYAMSWVRQAPGKGLEWVSAISGSGGSTYYADSVKGRFTISRDNSKNTLYLQMNSLRAEDTAVYYCAKDSFYGYSKGDWGQGTLVTVSS
VL: QSALTQPASVSGSPGQSITISCTGTSSDVGAYNYVSWYQQQPGKAPKLMIYGVSNRPSGVSNRFSGSKSGNAASLTISGLQAEDEADYYCSSYTSSSTYVFGTGTKLTVLG
- binding to KO neurons transfected with hASIC1a-mCherry ([1]; transfected with hASIC1a-mCherry): binding occurs in the postsynaptic dendrites
- binding to primary neurons from the KO mice ([1]; untransfected ASIC1a−/− neurons): no apparent binding
- membrane co-localization with hASIC1a [2]: membrane co-localization with hASIC1a
